Results as given in US20250296971A1, “GASTRIC INHIBITORY PEPTIDE RECEPTOR LIGANDS” (priority 2021, published 2025).
*1 amine or outer side, *2 acyl side, *3 side chain or, on linkers, in order; H or OH if unused. Bridges are numbered along the chain shown (N, C = ends). Primed or numbered codes have the meaning given here. Where no end group is shown, it is not given here. Side-chain parts run from the residue outwards. [ ]: non-standard residue; d: D form. The star is where a group is joined. TBMB(SCH2CH2NH-DOTA) = O=C(O)CN1CCN(CC(=O)O)CCN(CC(=O)NCCSCc2cc(C[*:1])cc(C[*:2])c2)CCN(CC(=O)O)CC1; Ttds = 1,13-diamino-4,7,10-trioxatridecan-succinamic acid, NCCCOCCOCCOCCCNC(=O)CCC(=O)*; DOTA(In) = O=C1CN2CCN3CCN(CC(=O)*)CCN(CC2)CC(=O)[O][In]([O]1)[O]C(=O)C3; NH(1-deoxy-D-glucityl) = OC[C@@H](O)[C@@H](O)[C@H](O)[C@@H](O)CN*; Pro(trans-4-NH2) = O=C([C@@H]1C[C@@H](N[*:3])CN1[*:1])[*:2]; DOTA = O=C(O)CN1CCN(CC(=O)O)CCN(CC(=O)*)CCN(CC(=O)O)CC1; MeO2kDaPEGAc = polydisperse 2 kDa PEG (methoxy, acetyl); 3MeBn = 3-methyl-benzylidene (derived from 1,3-xylene); 2Lut = 2,6-lutidylidene bridge between two thiols; Trp(5-Br) = N[C@@H](Cc1c[nH]c2ccc(Br)cc12)C(=O)O; Trp(5-Cl) = N[C@@H](Cc1c[nH]c2ccc(Cl)cc12)C(=O)O; Pyridine(2,6-diCH2) = c1cc(C[*:1])nc(C[*:2])c1; Trp(6-F) = N[C@@H](Cc1c[nH]c2cc(F)ccc12)C(=O)O; 2Lut″ = 2,6-lutidylidene linking two thiols; APAc = 4-amino-1-carboxymethylpiperidine; mXylylene = c1cc(C[*:1])cc(C[*:2])c1; Glutaryl = O=C(CCCC(=O)[*:2])[*:1]; AGLU = 1-amino-1-deoxy-D-glucitol; Hyp = O=C(O)[C@@H]1C[C@@H](O)CN1; Cysteamide = C(CS[*:3])N[*:1]; dGlu(AGLU) = not defined here; Suc = O=C(CCC(=O)[*:2])[*:1]; ZnDOTA = DOTA zinc complex; αMeS = C[C@](N)(CO)C(=O)O; Api = NC1(C(=O)O)CCNCC1; Thp = NC1(C(=O)O)CCOCC1; AEEA = NCCOCCOCC(=O)O; Aib = CC(C)(N)C(=O)O; Sar = CNCC(=O)O

B1: DOTA-Ttds-Asp-6Fw-5Brw-Pro-Glu-leu-[Cys(3MeBn)-Aib-Leu-Ile-AET] (peptide)
peptide: {DOTA-Ttds}-D[Trp(6-F)][Trp(5-Br)]PE[dL]C[Aib]LI[Cysteamide]
modifications: linker 7-11 via mXylylene
B2: HO-Succinyl-Trp-5Clw-Hyp-Glu-leu-[Cys(2Lut)-Thp-Leu-Ile-Cys]-Lys(DOTA)-NH2 (peptide)
peptide: Suc-W[Trp(5-Cl)][Hyp]E[dL]C[Thp]LIC-{Lys(DOTA)-NH2}
modifications: linker 6-10 via Pyridine(2,6-diCH2)
B3: HO-Succinyl-Trp-5Clw-Hyp-Glu-leu-[Cys(2Lut)-Thp-Leu-Ile-Cys]-lys(DOTA)-NH2 (peptide)
peptide: W[Trp(5-Cl)][Hyp]E[dL]C[Thp]LIC-{dK(DOTA)-NH2}
modifications: linker 6-10 via 2Lut; not fully specified (N-terminus)
B4: DOTA-glu(AGLU)-O2Oc-Asp-Trp-5Clw-Tap-Glu-leu-[Cys(2Lut)-Apc(AGLU-Glutar)-Leu-Ile-Cys]-APAc-glu(AGLU)-NH2 (peptide)
peptide: {DOTA-dGlu(AGLU)-AEEA}-DW[Trp(5-Cl)][Pro(trans-4-NH2)]E[dL]C[Api]([Glutaryl-NH(1-deoxy-D-glucityl)])LIC-{APAc-dGlu(AGLU)-NH2}
modifications: linker 7-11 via 2Lut; reading uncertain
B5: MeO2kDaPEGAc-Asp-Trp-5Clw-Hyp-Glu-leu-[Cys(2Lut)-Thp-Leu-Ile-Cys]-lys(DOTA)-NH2 (peptide)
peptide: MeO2kDaPEGAc-DW[Trp(5-Cl)][Hyp]E[dL]C[Thp]LIC-{dK(DOTA)-NH2}
modifications: linker 7-11 via Pyridine(2,6-diCH2)
B6: Ac-Asp-Trp-5Clw-Hyp-Glu-leu-[Cys(2Lut)-Apc(DOTA)-Leu-Ile-Cys]-NH2 (peptide)
peptide: Ac-DW[Trp(5-Cl)][Hyp]E[dL]C[Api](DOTA)LIC-NH2
modifications: linker 7-11 via Pyridine(2,6-diCH2)
B7: Ac-Asp-Trp-5Clw-Tap-Glu-leu-[Cys(2Lut)-Apc(DOTA)-Leu-Ile-Cys]-NH2 (peptide)
peptide: Ac-DW[Trp(5-Cl)][Pro(trans-4-NH2)]E[dL]C[Api](DOTA)LIC-NH2
modifications: linker 7-11 via 2Lut″
B8: Ac-Asp-Trp-5Clw-Hyp-Glu-leu-[Cys(tMeBn(DOTA-AET))-Thp-Leu-Ile-Cys]-NH2 (peptide)
peptide: Ac-DW[Trp(5-Cl)][Hyp]E[dL]C[Thp]LIC-NH2
modifications: linker 7-11 via TBMB(SCH2CH2NH-DOTA)
B9: AGLU-Glutar-Asp-Trp-5Clw-Hyp-Glu-leu-[Cys(2Lut)-Apc(ZnDOTA)-Leu-Ile-AET] (peptide)
peptide: {AGLU-Glutaryl}-DW[Trp(5-Cl)][Hyp]E[dL]C[Api](ZnDOTA)LI[Cysteamide]
modifications: linker 7-11 via Pyridine(2,6-diCH2)
B10: InDOTA-Ttds-Asp-Trp-5Clw-Pro-Glu-leu-[Cys(3MeBn)-Aib-Leu-Ile-AET] (peptide)
peptide: {DOTA(In)-Ttds}-DW[Trp(5-Cl)]PE[dL]C[Aib]LI[Cysteamide]
modifications: linker 7-11 via 3MeBn; also: DOTA as indium complex (InDOTA)
B11: InDOTA-Ttds-Asp-Trp-5Clw-Pro-Glu-leu-[Cys(3MeBn)-Ams-Leu-Ile-AET] (peptide)
peptide: {DOTA(In)-Ttds}-DW[Trp(5-Cl)]PE[dL]C[αMeS]LI[Cysteamide]
modifications: linker 7-11 via 3MeBn; also: DOTA as indium complex (InDOTA)
B12: InDOTA-Ttds-Asp-Trp-5Clw-Pro-Glu-leu-[Cys(3MeBn)-Thp-Leu-Ile-AET] (peptide)
peptide: {DOTA(In)-Ttds}-DW[Trp(5-Cl)]PE[dL]C[Thp]LI[Cysteamide]
modifications: linker 7-11 via mXylylene; also: indium(III) complexed in DOTA
B13: InDOTA-Ttds-Asp-Trp-5Clw-Nmg-Glu-leu-[Cys(3MeBn)-Aib-Leu-Ile-AET] (peptide)
peptide: {DOTA(In)-Ttds}-DW[Trp(5-Cl)][Sar]E[dL]C[Aib]LI[Cysteamide]
modifications: linker 7-11 via 3MeBn; also: DOTA as indium complex (InDOTA)

Molecular target: human Gastric Inhibitory Peptide Receptor (human) (UniProt P48546)
Assay: FACS competition with GIP-057 on CHO-K1-hGIPR cells; pIC50 category A: >8.0

human Gastric Inhibitory Peptide Receptor (human), sequence (P48546 22-466 limits assumed): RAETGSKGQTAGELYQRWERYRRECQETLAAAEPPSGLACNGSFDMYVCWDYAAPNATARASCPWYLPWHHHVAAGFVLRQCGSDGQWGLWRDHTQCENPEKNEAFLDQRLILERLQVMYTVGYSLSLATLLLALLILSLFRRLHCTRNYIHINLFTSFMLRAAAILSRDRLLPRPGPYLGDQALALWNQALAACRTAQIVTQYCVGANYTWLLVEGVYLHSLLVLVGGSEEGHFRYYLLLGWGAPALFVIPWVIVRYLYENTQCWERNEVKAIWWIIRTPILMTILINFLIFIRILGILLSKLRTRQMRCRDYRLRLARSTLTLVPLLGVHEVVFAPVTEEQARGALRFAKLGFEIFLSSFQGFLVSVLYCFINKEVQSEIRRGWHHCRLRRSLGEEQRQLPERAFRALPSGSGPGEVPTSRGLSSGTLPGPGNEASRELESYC

pIC50, > 8 pic50:
B1
B2
B3
B4
B5
B6
B7
B8
B9
B10
B11
B12
B13
